One assay concerns the target FFpSPR. The assay is described as follows: NMR titration. Particulars: phospho-S3 of peptide.
Assay [1] has as its target pCdc25C (Homo sapiens). Put plainly: NMR titration. Particulars: phospho-T5 of peptide (pT48).
Another assay has as its target trans-locked inhibitor. The assay is described as follows: NMR titration. Particulars: phospho-S3, trans-locked alkene isostere.
Assay [2] deals with pCdc25C (Homo sapiens). The assay is described as follows: ITC. Particulars: phospho-T5 of peptide (pT48).

The source of these data is PMC4610412.

As to ADEEKLPPGWEKRMSRSSGRVYYFNHITNASQWERPSGNSS [Pin1 (WW domain site, full-length Pin1) WW, Q13526], the Kd in the assay with FFpSPR amounted to 43 µM; with pCdc25C (Homo sapiens) [1] it was 6 µM; in the assay with trans-locked inhibitor, 53 µM.
Regarding ADEEKLPPGWEKRMSRSSGRVYYFNHITNASQWERPSGNSS [Pin1 WW domain (isolated) WW, Q13526], the equilibrium dissociation constant (Kd) with pCdc25C (Homo sapiens) [2] worked out at 13 µM.
